Assay results published in patent publication US20020123082A1 (NEW YORK UNIVERSITY, published 2002).

Biological target: T1, human Cul1 (endogenous) (human, UniProt Q13616 1-776)
T1 construct: A slower migrating form is said to be likely modified by a ubiquitin-like molecule
Assay: anti-Flag co-immunoprecipitation from transfected HeLa cells, anti-Cul1 immunoblot
Source text: HeLa cells were transfected with mammalian expression plasmids encoding Flag-tagged versions of FBP1 (lane 1), (ΔF)FBP1 (lane 2), FBP4 (lane 3), FBP7 (lane 5), FBP2 (lane 7), (ΔF)FBP2 (lane 8), FBP3a (lane 9), (ΔF)FBP3a (lane 10), or with an empty vector (lanes 4 and 6). Cells were lysed and extracts were subjected to immunoprecipitation with a rabbit anti-Flag antibody (lanes 1-8). Immunoprecipitates were then immunoblotted with a mouse anti-Cul1 monoclonal antibody, a rabbit anti-Skp1 polyclonal antibody or a rabbit anti-Cul2 polyclonal antibody, as indicated. The last lane contains 25 μg of extracts from non-transfected HeLa cells; […] contains recombinant Cul1, Skp1, or Cul2 proteins used as markers.

T1 sequence (Q13616 whole entry): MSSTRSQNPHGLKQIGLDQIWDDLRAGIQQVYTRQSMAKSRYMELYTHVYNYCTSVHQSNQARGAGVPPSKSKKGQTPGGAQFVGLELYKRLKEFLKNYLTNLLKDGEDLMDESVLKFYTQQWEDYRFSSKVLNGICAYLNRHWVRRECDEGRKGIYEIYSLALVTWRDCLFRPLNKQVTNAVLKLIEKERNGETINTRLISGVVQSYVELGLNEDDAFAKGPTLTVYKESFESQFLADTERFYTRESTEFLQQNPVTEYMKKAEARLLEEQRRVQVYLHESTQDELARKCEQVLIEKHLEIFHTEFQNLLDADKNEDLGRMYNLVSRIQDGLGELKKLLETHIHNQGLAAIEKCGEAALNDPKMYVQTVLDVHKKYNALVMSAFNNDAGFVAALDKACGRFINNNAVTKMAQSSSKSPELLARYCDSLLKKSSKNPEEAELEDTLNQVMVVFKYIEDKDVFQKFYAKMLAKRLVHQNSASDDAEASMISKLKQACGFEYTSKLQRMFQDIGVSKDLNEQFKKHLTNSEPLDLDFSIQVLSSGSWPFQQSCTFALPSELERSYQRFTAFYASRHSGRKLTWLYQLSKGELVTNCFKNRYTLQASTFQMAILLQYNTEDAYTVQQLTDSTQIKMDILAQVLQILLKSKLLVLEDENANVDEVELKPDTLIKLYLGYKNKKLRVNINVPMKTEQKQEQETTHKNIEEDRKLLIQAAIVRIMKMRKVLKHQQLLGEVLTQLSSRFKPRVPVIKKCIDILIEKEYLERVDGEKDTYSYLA

binding result: no binding
B1: Flag-tagged (ΔF)FBP3a (other, not shown: small tags and cut ends)
chain: MKRGGRDSDRNSSEEGTAEKSKKLRTTNEHSQTCDWGNLRCFEFELNQPATSYLKATHPELIKQIIKRHSNHLQYVSFKVDSSKESAEAACDILSQLVNCSLKTLGLISTARPSFMDLPKSHFISALTVVFVNSKSLSSLKIDDTPVDDPSLKVLVANNSDTLKLLKMSSCPHVSPAGILCVADQCHGLRELALNYHLLSDELLLALSSEKHVRLEHLRIDVVSENPGQTHFHTIQKSSWDAFIRHSPKVNLVMYFFLYEEEFDPFFRYEIPATHLYFGRSVSKDVLGRVGMTCPRLVELVVCANGLRPLDEELIRIAERCKNLSAIGLGECEVSCSAFVEFVKMCGGRLSQLSIMEEVLIPDQKYSLEQIHWEVSKHLGRVWFPDMMPTW
notes: pcDNA3 construct, Flag tag at the C-terminus; also called Flag-tagged (deltaF)FBP3a
